Test results as given in the supplement of paper PMC10567573.

B1: C8orf76 (parent)
chain: LYLQLAICSSLQNLEKTIFCLQKL
B2: ZNF449 (parent)
chain: YRHQRLHTGERPYECTVCKKRFTR

Variants of: B1
Test: protein stability index of a GFP-peptide fusion (GPS, HEK-293T) (PSI 1-6); higher = more stable
Settings: c terminus: a fixed tail appended
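Note: lentivirally expressed fusions sorted by FACS into six bins by GFP to DsRed ratio, PSI derived from sequencing read proportions per bin multiplied by bin number.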

Protein stability index, by site and new letter:
L1: I 2.57, T 2.99, D 4.64, V 2.57, P 3.08, N 3.07, E 3.38, S 3.44
L21: Y 3.14, E 1.42, R 2.08, G 3.2, H 2.76, D 2.09, S 2.59, A 2.77, P 3.85, F 3.62, C 2.88, N 2.25
L3: P 1.81, A 3.31, D 2.73, E 2.56, V 3.09, T 4.08, S 3.2, C 4.32, N 1.34, R 4.15
Q22: K 3.39, P 2.69, S 1.58, W 1.93, T 3.32, V 2.58, C 2.56, I 1.46, F 3.5, M 3.12, N 2.31, D 2.46
E15: G 1.69, P 3.75, Q 3.27, C 2.82, R 2.63, D 1.75, M 3.11, V 3.25, L 4.03, W 3.01, T 1.99, F 4.35, I 2.49
Q12: E 2.29, T 4.52, P 2.52, V 2.3, G 2.58, H 3.42, N 2.07, F 2.75, M 3.9, A 2.38, W 3.78, K 3.08
F19: E 1.81, M 3.62, N 3.32, I 2.8, C 2.27, V 2, L 3.21, K 3.04, W 2.24, G 2.83, A 2.89, T 1.71, Y 4.28
S10: H 3.71, T 2.38, F 4.67, N 3.36, K 2.11, V 3.44, A 2.36, L 2.99, P 2.52
N13: S 3.71, Y 2.21, P 3.23, A 2.98, I 1.93, C 2.25, M 3.43, F 2.51, R 3.01, D 3.49
L11: F 1.39, W 1.77, Q 2.35, D 2.17, M 3.61, E 4.55, K 3.11, I 2.28, P 5.02, T 1.82, C 1.8
I7: S 1.26, Y 3.21, N 2.23, G 3.86, M 2.24, H 2.71, T 2.36
K16: N 2.47, T 4.26, Y 2.26, S 2.67, Q 3.17, I 2.44, C 4.77, P 2.32
Q4: A 1.92, F 2.22, W 1.41, R 4.03, M 3.43, V 3.48, I 2.44, T 2.97, S 4.32, K 2.11, E 1.65, D 2.74, C 5.01
A6: Q 2.63, H 4.38, M 3.66, T 3.04, G 1.73, W 1.73, V 1.62, Y 2.03, R 3.17, N 2.71, L 2.52, C 2.72, P 2.9, I 2.16
C8: Y 2.62, T 2.71, G 3.48, H 2.52, V 3.6, M 4.39, E 3.54, S 3.03, L 2.92, P 2.57, R 3.1, W 2.12, F 1.94, I 1.69, N 3.14
Y2: S 2.26, C 1.42, R 4.79, N 2.69, H 3.59, E 3.3, I 3.14, W 3.02, P 1.62, V 3.11, F 2.5, T 2.08, D 1.07, K 2.42
L5: P 2.23, K 1.36, A 1.65, R 1.92, E 1.79, F 3.72, T 2.24, N 3.62, W 2.82, C 1.79, Y 2.57, G 3.09, V 2.05, H 1.67
L14: N 2.84, A 2.33, H 2.93, I 2.96, D 3.85, M 2.22, P 2.32, K 2.9, T 1.65, G 2.24, E 1.9
S9: G 3.03, A 3.6, D 2.72, L 2.28, W 1.02, V 3.45, N 4.23, K 1.75, I 2.34, M 4.15
I18: W 3.03, K 2.22, E 1.79, F 2.57, H 2.6, P 4.2, Q 2.44, R 2.41, M 1.11, Y 2.94, L 2.46, N 5.27
K23: G 3.17, D 2.02, F 2.92
T17: Q 3.45, F 3.63, M 3.56, L 4, Y 3.47, C 2.55, G 4.96, P 1.98, D 2.31, V 2.84, H 2.34, W 4.22, N 2.46
C20: V 3.44, W 2.66, H 3.83, I 2.15, F 2.83, A 2.85, M 1.94, T 2.13, G 3.1, P 1.88, E 1.86, Y 2.18, D 2.93, K 2.36, R 3.09

Variants of: B2
Test: as above
Settings: c terminus: a fixed tail appended

Protein stability index of substitutions, site by site:
F22: L 2.87, E 3.23, V 2.52, I 2.76, K 2.79, P 2.98, A 2.93, H 3.21, T 2.41, R 3.19, W 2.3, M 2.48, Q 2.66, N 3.09, S 3.06, D 2.94, Y 2.84, G 2.27, C 3.46
R24: H 2.11, I 2.14, S 2.3, G 2.44, D 2.6, T 2.26, P 2.75, M 2.68, L 2.39, C 2.65, A 2.35, Y 2.1, N 2.47, F 2.57, Q 2.31, E 2.78, V 2.51, K 3.32, W 1.87
T23: F 2.62, M 2.85, C 2.7, I 2.76, K 2.54, G 2.41, Q 2.16, D 2.21, Y 2.78, L 2.71, A 2.93, R 2.85, E 2.67, P 2.45, V 2.36, S 2.09, W 2.13, N 2.28, H 2.78
R21: D 2.46, Y 2.49, H 2.56, P 2.46, M 1.89, I 1.9, F 2.1, W 2.18, V 2, Q 1.98, E 2.39, T 1.92, L 2.02, N 1.93, S 1.65, G 1.96, C 2.01, K 2.15
